The labels stand for the following.
B1: OA-Fc-ABDEG-Alb23 (Fc fusion)
chain: DKTHTCPPCPAPELLGGPSVFLFPPKPKDTLYITREPEVTCVVVDVSHEDPEVKFNWYVDGVEVHNAKTKPREEQYNSTYRVVSVLTVLHQDWLNGKEYKCKVSNKALPAPIEKTISKAKGQPREPQVYTLPPSRDELTKNQVSLWCLVKGFYPSDIAVEWESNGQPENNYKTTPPVLDSDGSFFLYSKLTVDKSRWQQGNVFSCSVMHEALKFHYTQKSLSLSPGGGGGSGGGGSGGGGSGGGGSEVQLLESGGGLVQPGGSLRLSCAASGFTFRSFGMSWVRQAPGKGPEWVSSISGSGSDTLYADSVKGRFTISRDNSKNTLYLQMNSLRPEDTAVYYCTIGGSLSRSSQGTLVTVSS
Fc: DKTHTCPPCPAPELLGGPSVFLFPPKPKDTLYITREPEVTCVVVDVSHEDPEVKFNWYVDGVEVHNAKTKPREEQYNSTYRVVSVLTVLHQDWLNGKEYKCKVSNKALPAPIEKTISKAKGQPREPQVYTLPPSRDELTKNQVSLSCAVKGFYPSDIAVEWESNGQPENNYKTTPPVLDSDGSFFLVSKLTVDKSRWQQGNVFSCSVMHEALKFHYTQKSLSLSPG
notes: also called one-armed Fc-ABDEG-Alb23; OA-Fc-ABDEG-Alb23 (parental)
B2: OA-Fc-ABDEG-Alb23-G33A (Fc fusion)
chain: B1 chain with G279A
Fc: B1 Fc
B3: OA-Fc-ABDEG-Alb23-S52A/S101A (Fc fusion)
chain: B1 chain with S298A, S347A
Fc: B1 Fc
B4: OA-Fc-ABDEG-Alb23-G33A/G53A (Fc fusion)
chain: B1 chain with G279A, G299A
Fc: B1 Fc
B5: OA-Fc-ABDEG-Alb23-S101A (Fc fusion)
chain: B1 chain with S347A
Fc: B1 Fc
B6: OA-Fc-ABDEG-Alb23-S52A/G53A (Fc fusion)
chain: B1 chain with S298A, G299A
Fc: B1 Fc
B7: OA-Fc-ABDEG-Alb23-S52A (Fc fusion)
chain: B1 chain with S298A
Fc: B1 Fc
B8: OA-Fc-ABDEG-Alb23-G53A (Fc fusion)
chain: B1 chain with G299A
Fc: B1 Fc
B9: Alb23 D57A (VHH)
VHH: EVQLLESGGGLVQPGGSLRLSCAASGFTFRSFGMSWVRQAPGKGPEWVSSISGSGSATLYADSVKGRFTISRDNSKNTLYLQMNSLRPEDTAVYYCTIGGSLSRSSQGTLVTVSS
notes: VHH alone
B10: Alb23 S103A (VHH)
VHH: B9 VHH with A57D, S103A
notes: VHH alone
B11: Alb23 T58A (VHH)
VHH: B9 VHH with A57D, T58A
notes: VHH alone
B12: Alb23 R104A (VHH)
VHH: B9 VHH with A57D, R104A
notes: VHH alone
B13: Alb23 I51A (VHH)
VHH: B9 VHH with I51A, A57D
notes: VHH alone
B14: Alb23 S54A (VHH)
VHH: B9 VHH with S54A, A57D
notes: VHH alone
B15: Alb23 S35A (VHH)
VHH: B9 VHH with S35A, A57D
notes: VHH alone
B16: Alb23 Y60A (VHH)
VHH: B9 VHH with A57D, Y60A
notes: VHH alone
B17: Alb23 K65A (VHH)
VHH: B9 VHH with A57D, K65A
notes: VHH alone
B18: Alb23 S31A (VHH)
VHH: B9 VHH with S31A, A57D
notes: VHH alone
B19: Alb23 S50A (VHH)
VHH: B9 VHH with S50A, A57D
notes: VHH alone
B20: Alb23 G66A (VHH)
VHH: B9 VHH with A57D, G66A
notes: VHH alone
B21: Alb23 S56A (VHH)
VHH: B9 VHH with S56A, A57D
notes: VHH alone
B22: Alb23 V64A (VHH)
VHH: B9 VHH with A57D, V64A
notes: VHH alone
B23: Alb23 D62A (VHH)
VHH: B9 VHH with A57D, D62A
notes: VHH alone

Changes are numbered by the printed parent chain. Names may count otherwise.

T4 sequence (P55899 24-365 limits assumed, chain 1 of 2): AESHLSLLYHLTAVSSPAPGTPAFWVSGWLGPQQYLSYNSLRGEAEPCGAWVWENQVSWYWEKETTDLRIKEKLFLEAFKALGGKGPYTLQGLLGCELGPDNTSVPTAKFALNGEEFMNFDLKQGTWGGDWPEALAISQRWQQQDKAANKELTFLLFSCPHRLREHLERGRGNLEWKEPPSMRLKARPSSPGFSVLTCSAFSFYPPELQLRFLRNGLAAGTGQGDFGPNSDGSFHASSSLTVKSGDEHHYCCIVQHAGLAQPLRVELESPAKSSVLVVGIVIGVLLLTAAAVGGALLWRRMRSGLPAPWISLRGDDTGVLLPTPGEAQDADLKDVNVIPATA
T4 sequence (P61769 21-119 limits assumed, chain 2 of 2): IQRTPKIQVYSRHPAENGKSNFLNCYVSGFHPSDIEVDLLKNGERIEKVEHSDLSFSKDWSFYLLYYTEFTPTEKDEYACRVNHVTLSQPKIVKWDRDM

For the first assay, the target named is T1, human serum albumin (human, UniProt P02768 25-609).
T1 construct: Immobilised on SPR chips; also added in solution in the FcRn occupancy assays; also called HSA; humanSA
Briefly: SPR Biacore, HSA coated, kinetic fit, pH 5.5. (In general: In SPR one partner is held on a chip, and binding of the other changes the refractive index at the surface.)
For the molecule B1, the dissociation constant Kd turned out to be 16.6 nM.
Same read-out and setting: for B2 the value was 124 nM.
Still for that read-out and setting: for B3 the value was 95.6 nM.
Same read-out and setting: to B4 belongs 90.2 nM.
On to B5, for which the Kd worked out at 54.3 nM.
The same measure, in the same setting: to B6 belongs 47.7 nM; to B7, 34.2 nM.
B8 registered a Kd of 20.6 nM.

The next assay deals with T1, human serum albumin. Briefly: SPR Biacore, HSA coated, kinetic fit, pH 7.4.
As to B2, the dissociation constant (Kd) worked out at 150 nM.
B3 showed a dissociation constant (Kd) of 501 nM.
On the same count and under the same terms, to B4 belongs 499 nM; to B5, 255 nM.
Same read-out and setting: to B6 belongs 204 nM; to B7, 167 nM; to B8, 78.8 nM.

The next assay concerns the target T1, human serum albumin. Briefly: SPR Biacore 8K+ SCK, albumin on chip, pH 7.4.
B9 returned a dissociation constant Kd of 5.58 nM.
Same read-out and setting: for B10 the value was 3.85 nM; for B11, 5.97 nM.
Still for that read-out and setting: to B12 belongs 4.58 nM; to B13, 5.17 nM; to B14, 2.81 nM.
B15 displayed a Kd of 4.95 nM.
Turning to B16, binding was characterised by a dissociation constant (Kd) of 4.28 nM.
Molecule B17 gave a Kd of 5.36 nM.
On the same count and under the same terms, for B18 the value was 3.36 nM; for B19, 2.33 nM.
On the same count and under the same terms, for B20 the value was 3.97 nM.
For B21, binding was characterised by a dissociation constant (Kd) of 3.33 nM.
Same read-out and setting: to B22 belongs 2.9 nM; to B23, 3.07 nM.

A further assay addresses T2, cynomolgus monkey serum albumin (cynomolgus monkey, UniProt A2V9Z4 25-608).
T2 construct: Immobilised on SPR chips; also called cynoSA; cynomolgus albumin
Briefly: SPR Biacore 8K+ SCK, albumin on chip, pH 7.4.
With B9, the affinity, expressed as Kd, was 6.25 nM.
Same read-out and setting: to B10 belongs 4.2 nM.
B11 gave a Kd of 6.83 nM.
Still for that read-out and setting: to B12 belongs 4.92 nM; to B13, 5.53 nM; to B14, 3.13 nM.
Same read-out and setting: to B15 belongs 5.24 nM.
The same measure, in the same setting: to B16 belongs 4.58 nM; to B17, 3.18 nM; to B18, 3.74 nM.
Molecule B19 returned a dissociation constant Kd of 2.6 nM.
Same read-out and setting: to B20 belongs 5.84 nM; to B21, 3.65 nM; to B22, 4.11 nM.
The same measure, in the same setting: for B23 the value was 3.48 nM.

In another assay the target is T3, mouse serum albumin (mouse, UniProt P07724 25-608).
T3 construct: Immobilised on SPR chips; also called mouseSA; MSA
Briefly: SPR Biacore 8K+ SCK, albumin on chip, pH 7.4.
Consider B9, for which binding was put at a Kd of 50.6 nM.
Same read-out and setting: to B10 belongs 38.2 nM; to B11, 57.1 nM; to B12, 49.7 nM.
Same read-out and setting: to B13 belongs 42.3 nM.
Take B14: binding was characterised by a dissociation constant (Kd) of 25.6 nM.
Same read-out and setting: for B15 the value was 37.6 nM; for B16, 42.2 nM; for B17, 52.3 nM.
On the same count and under the same terms, for B18 the value was 29.3 nM; for B19, 19 nM.
For the molecule B20, binding was characterised by a dissociation constant (Kd) of 39.5 nM.
Still for that read-out and setting: for B21 the value was 37.7 nM; for B22, 31.9 nM.
For the molecule B23, the dissociation constant Kd came out at 36.5 nM.

Another assay deals with T1, human serum albumin. In words: SPR Biacore, HSA coated, steady state, pH 5.5.
B1 returned a Kd of 32.7 nM.
On the same count and under the same terms, to B2 belongs 145 nM.
Still for that read-out and setting: to B3 belongs 124 nM; to B4, 135 nM.
On the same count and under the same terms, to B5 belongs 67.5 nM; to B6, 65.9 nM; to B7, 49.5 nM.
B8: binding was put at a Kd of 36.7 nM.

The next assay concerns the target T1, human serum albumin. In words: SPR Biacore, HSA coated, steady state, pH 7.4.
B2 showed a Kd of 863 nM.
Same read-out and setting: for B3 the value was 579 nM.
B4 showed a Kd of 767 nM.
Still for that read-out and setting: to B5 belongs 353 nM; to B6, 298 nM.
Still for that read-out and setting: to B7 belongs 27.3 nM; to B8, 158 nM.

Another assay has as its target T4, neonatal Fc receptor (FcRn), endogenous in U937 cells (human, UniProt P55899 24-365; P61769 21-119).
T4 construct: whole, on cells; Free FcRn was stained intracellularly after fixation and permeabilisation
In words: FcRn occupancy, FACS, U937 cells, with albumin.
Method: Next, FcRn occupancy was tested using a cell-based FcRn occupancy assay in the presence or absence of albumin. […] Cells (HEK FcRn mut or U937) were plated in a 96-well microplate. Cells were incubated with test article for two hours, shaking at 37° C., pH 7.4 in FACS buffer. Plates were then transferred immediately on ice and cells were collected by centrifugation at 4° C. Cells stained for viability in FACS buffer at pH 6 and then fixed/permeabilized in permeabilization buffer at pH 6. […] Cells were analyzed by FACS, ensuring that they are kept on ice until immediately prior to analysis.
B1: the “% max occupancy” value came out at 67.4% and it took 5.2 nM to reach half-maximal inhibition (IC50).

Broadly, the Kd is a measure of binding affinity in units of concentration. As usually defined, the IC50 is the point on the concentration scale where inhibition reaches its midpoint.
